From PMC12538056, “The effects of naturally occurring mutations on functionality of oxylipin metabolizing dehydrogenase reductase nine” (The Journal of Biological Chemistry, 2025)

Biological target: the molecule itself
Test: not stated; purified water-soluble DHRS9 in solution; the method is shown only in Fig. S3

B1: water-soluble form of mouse DHRS9 (dehydrogenase reductase 9) lacking the N-terminal transmembrane segment (enzyme, UniProt Q58NB6 17-319, looked up)
chain: NYKGQLKIADIADKYVFITGCDTGFGNLAARTFDKKGFRVIAACLTESGSAALKAKTSERLHTVLLDVTDPENVKKTAQWVKSHVGEKGLWGLINNAGVLGVLAPTDWLTVDDYREPIEVNLFGLINVTLNMLPLVKKARGRVINVSSIGGRLAFGGGGYTPSKYAVEGFNDSLRRDMKAFGVHVSCIEPGLFKTELADPIKTTEKKLAIWKHLSPDIKQQYGEGYIEKSLHRLKSNTSSVNLDLSLVVGCMDHALTSLFPKTRYIAGKDAKTFWIPLSHMPAVLQDFLLLKQKVELANPKAV
notes: mouse DHRS9 lacking the first 16 amino acids that form the transmembrane segment; residues 17 to 319; cDNA made by RT-PCR from mouse skin; Crystallised in complex with NADH; In the model, residues 21-319 (chain A) and 22-319 (chain B) are seen; the tag and residues 17-20/21 could not be located; also called soluble form of DHRS9; truncated DHRS9 protein; not shown: His10, N-terminal, kept
With B1 the “stoichiometry N” value was 2.
